Assays:
[1] = target: full-length ADRB2 (β2 adrenergic receptor); assay: SPR saturation binding, ADRB2; design: species or system human
Method: The human ADRB2 and CNR2 receptors were produced using the P. pastoris expression system as previously described, [16]. After methanol-induced receptor expression, cells were washed with PBS pH 7.0 and resuspended in ice-cold buffer A (50 mM Tris-HCl pH 7.4, 500 mM NaCl, 10% glycerol, 5 mM EDTA, 1 mM PMSF, 2 mM DDT). Cells were then lysed with two cycles of 20 s shaking and 20 s cooling on ice using 0.5 mm glass beads in a FastPrep 24 device. Unbroken cells and cell debris were removed by centrifugation (3000 g, 5 min, 4°C) and the membrane fraction from the supernatant was pelleted by ultracentrifugation (100,000 g, 45 min, 4°C). […] Finally membranes were resuspended in buffer B and quantified with the bicinchoninic acid (BCA) method (Pierce).
Approximately 150 mg membrane proteins were extracted by 5 min incubation at room temperature in buffer C (50 mM Tris-HCl pH 7.4, 500 mM NaCl, 10% glycerol, 1 mM PMSF, 2 mM DTT, 50 mM imidazole, 1% (w/v) DDM, 0.1% (w/v) CHS). […] Imidazole was removed from the eluted fraction using a HiTrap 5 ml desalting column (GE Healthcare), purified proteins were quantified using the BCA assay (Pierce) and receptor integrity was analyzed by SDS-PAGE. […]

[2] = tested on: GFP-tagged ADRB1 in HEK293 cells; assay: Co-immunoprecipitation, ADRB1; type: cell-based; details: 48 h expression, anti-GFP immunoprecipitation
Method: (§1) HEK293 cells stably expressing N-terminal GFP-tagged ADRB1, ADRB2, CALCR and M1 or MyrPalm-mYFP were transfected with pcDNA3.1 containing the sequence for a central domain of GASP-1 (AA 380 to 1073) using JetPEI reagent (polyplus transfection) according to the instructions from the manufacturer. After 48 h of expression, cells were washed twice with PBS and lysed in a buffer containing 10 mM Tris-HCl, pH 7.4, 150 mM NaCl, 25 mM KCl, 0.3% Triton X-100 and cOmplete protease inhibitors (Roche) for 1 h at 4°C under agitation. 500 µg of cleared lysates were incubated with 1 µg of a mouse monoclonal anti-GFP antibody (Invitrogen) overnight at 4°C, followed by an incubation with 40 µl of protein A-Sepharose beads for an additional 2 h at 4°C. Beads were then washed five times in lysis buffer and precipitates were resolved on an 8% gel by SDS–PAGE and electrotransferred to immobilon-P membranes (Millipore) in 50 mM Tris-boric acid for 1 h at 300 mA. Membranes were blocked with 5% non-fat powder milk in TBS-Tween (50 mM Tris-HCl pH 8, 150 mM NaCl, 0.4% Tween-20) for 1 h at room temperature. […] For immunodetection of GASP or GFP-tagged receptors directly from cell lysates, 10 µg of proteins were loaded on SDS gels and analyzed following the procedure described above. Finally, membranes were washed in TBS-Tween and detected by chemiluminescence (ECL prime, GE Healthcare). […]

[3] = tested on: GFP-tagged ADRB2 in HEK293 cells; assay: Co-immunoprecipitation, ADRB2; type: cell-based; details: 48 h expression, anti-GFP immunoprecipitation
Method: as §1

[4] = tested on: GFP-tagged CALCR in HEK293 cells; assay: Co-immunoprecipitation, CALCR; type: cell-based; details: 48 h expression, anti-GFP immunoprecipitation
Method: as §1

B1: central domain of GASP-1: central portion of GASP-1 (AA 380 to 1073) that contains 19 GASP motif (protein)
chain: MTKEEAKTKARARAKQEARSEEEALIGTWFWATDESSMADEASIESSLQVEDESIIGSWFWTEEEASMGTGASSKSRPRTDGERIGDSLFGAREKTSMKTGAEATSESILAADDEQVIIGSWFWAGEEVNQEAEEETIFGSWFWVIDAASVESGVGVSCESRTRSEEEEVIGPWFWSGEQVDIEAGIGEEARPGAEEETIFGSWFWAENQTYMDCRAETSCDTMQGAEEEEPIIGSWFWTRVEACVEGDVNSKSSLEDKEEAMIPCFGAKEEVSMKHGTGVRCRFMAGAEETNNKSCFWAEKEPCMYPAGGGSWKSRPEEEEDIVNSWFWSRKYTKPEAIIGSWLWATEESNIDGTGEKAKLLTEEETIINSWFWKEDEAISEATDREESRPEAEEGDIIGSWFWAGEEDRLEPAAETREEDRLAAEKEGIVGSWFGAREETIRREAGSCSKSSPKAEEEEVIIGSWFWEEEASPEAVAGVGFESKPGTEEEEITVGSWFWPEEEASIQAGSQAVEEMESETEEETIFGSWFWDGKEVSEEAGPCCVSKPEDDEEMIVESWFWSRDKAIKETGTVATCESKPENEEGAIVGSWFEAEDEVDNRTDNGSNCGSRTLADEDEAIVGSWFWAGDEAHFESNPSPVFRAICRSTCSVEQEPDPSRRPQSWEEVTVQFKPGPWGRVGFPSISPFRFPKE
modifications: left off: GST, N-terminal, kept
notes: central portion of GASP-1 (AA 380 to 1073) that contains 19 GASP motif
Which results are given for B1?
kinetics of the interaction [1]: very stable and had a slow association rate; co-immunoprecipitation with ADRB1 [2]: co-immunoprecipitated; co-immunoprecipitation with ADRB2 [3]: co-immunoprecipitated; co-immunoprecipitation with CALCR [4]: co-immunoprecipitated

Reference: paper PMC3575409, “Identification of a Novel Protein-Protein Interaction Motif Mediating Interaction of GPCR-Associated Sorting Proteins with G Protein-Coupled Receptors” (PLoS ONE, 2013)
